The results in this text go back to patent US20260167718A1 (Merck Sharp & Dohme, published 2026).

Sequences and labels used below:
B1: Rat anti-ILT3 mAb 24A4 IgG2a/Kappa (antibody, V domains shown)
VH: QVQLKESGPGLVQASETLSLTCTVSGFSLTSYCVNWVRQPSGKGPEWLGRFWYDEGKVYNLTLESRLSISGDTSKNQVFLKMNRLRTDDTGTYYCTRDRDTLGITGWFAYWGQGTLVTVSS
VL: ETVMTQSPTSLSASIGERVTLNCKASQSVGINVDWYQQTPGQSPKLLIYGSANRHTGVPDRFTGSGFGSGFTLTISNVEPEDLGVYYCLQYGSVPYTFGPGTKLELK
notes: Rat IgG2a/Kappa; also called p24A4; LB184.24A4.1A1
B2: Rat anti-ILT3 mAb 20E4 IgG2a/Kappa (antibody, V domains shown)
VH: QVQLKESGPGLVQASETLSLTCTVSGFSLTSYSVNWVRQPSGKGLEWMGRFWYDGGTAYNSTLESRLSISGDTSKNQVFLKMNSLQTDDTGTYYCTRDRDTMGITGWFAYWGQGTLVTVSP
VL: B1 VL with I31V, G70D, P100A
notes: Rat IgG2a/Kappa; also called p20E4; LB184.20E4.1E1.1D1
B3: Rat anti-ILT3 mAb 37C8 IgG2a/Kappa (antibody, V domains shown)
VH: B1 VH with L102M
VL: B1 VL
notes: Rat IgG2a/Kappa; also called p37C8; LB184.37C8.1A3.1B1
B4: Rat anti-ILT3 mAb 16B1 IgG2a/Kappa (antibody, V domains shown)
VH: B1 VH with S31N, Y53F, V58A, K81R, R84S, T87A, L102V
VL: B1 VL with G70D
notes: Rat IgG2a/Kappa; also called p16B1; LB184.16B1.1D2
B5: Mouse anti-ILT3 mAb 52B8 IgG2a/Kappa (antibody)
heavy: EVQLVESGGDLVKPGGSLKLSCAASGFTFSNYGMSWVRQTPDRRLEWVATISGGGDYTNYPDSMRGRFTISRDNAKNTLYLQMSSLKSEDTAMYYCGRRLWFRSLYYAMDYWGQGTSVTVSSAKTTAPSVYPLAPVCGDTTGSSVTLGCLVKGYFPEPVTLTWNSGSLSSGVHTFPAVLQSDLYTLSSSVTVTSSTWPSQSITCNVAHPASSTKVDKKIEPRGPTIKPCPPCKCPAPNLLGGPSVFIFPPKIKDVLMISLSPIVTCVVVDVSEDDPDVQISWFVNNVEVHTAQTQTHREDYNSTLRVVSALPIQHQDWMSGKEFKCKVNNKDLPAPIERTISKPKGSVRAPQVYVLPPPEEEMTKKQVTLTCMVTDFMPEDIYVEWTNNGKTELNYKNTEPVLDSDGSYFMYSKLRVEKKNWVERNSYSCSVVHEGLHNHHTTKSFSRTPGK
light: NIVLTQSPASLAVSLGQRATISCRASEKVDSFGNSFMHWYQQKPGQPPKLLIYLTSNLDSGVPARFSGSGSRTDFALTIDPVEADDAATYYCQQNNEDPYTFGGGTKLEIKRADAAPTVSIFPPSSEQLTSGGASVVCFLNNFYPKDINVKWKIDGSERQNGVLNSWTDQDSKDSTYSMSSTLTLTKDEYERHNSYTCEATHKTSTSPIVKSFNRNEC
notes: also called p52B8; LB181.52B8.1B1
B6: Chimeric anti-ILT3 52B8 mouse VH/human IgG4 (S228P):mouse VL/human Kappa (antibody)
heavy: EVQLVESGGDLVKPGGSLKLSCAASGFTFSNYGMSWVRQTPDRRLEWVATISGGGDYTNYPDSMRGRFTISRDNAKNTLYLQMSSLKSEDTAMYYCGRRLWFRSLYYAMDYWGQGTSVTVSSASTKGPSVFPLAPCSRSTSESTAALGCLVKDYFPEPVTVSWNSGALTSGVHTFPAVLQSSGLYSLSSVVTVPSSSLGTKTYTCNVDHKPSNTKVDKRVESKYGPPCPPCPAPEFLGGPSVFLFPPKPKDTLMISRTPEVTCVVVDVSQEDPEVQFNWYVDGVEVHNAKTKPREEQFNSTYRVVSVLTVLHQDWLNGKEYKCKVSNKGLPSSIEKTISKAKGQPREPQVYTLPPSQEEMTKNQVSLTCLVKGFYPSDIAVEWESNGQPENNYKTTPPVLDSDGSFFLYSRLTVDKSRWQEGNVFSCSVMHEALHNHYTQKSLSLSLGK
light: NIVLTQSPASLAVSLGQRATISCRASEKVDSFGNSFMHWYQQKPGQPPKLLIYLTSNLDSGVPARFSGSGSRTDFALTIDPVEADDAATYYCQQNNEDPYTFGGGTKLEIKRTVAAPSVFIFPPSDEQLKSGTASVVCLLNNFYPREAKVQWKVDNALQSGNSQESVTEQDSKDSTYSLSSTLTLSKADYEKHKVYACEVTHQGLSSPVTKSFNRGEC
notes: also called mAb 73; c52B8
B7: humanized anti-ILT3 monoclonal antibody 9B11 (antibody, V domains shown)
VH: EVQLVESGGGLVKPGGSLRLSCAASGFAFSSYDMSWVRQAPGKGLEWVSTISSSGSYTYYPDSVKGRFTISRDNAKNSLYLQMNSLRAEDTAVYYCARLWGAMDYWGQGTLVTVSS
VL: DIQMTQSPSSLSASVGDRVTITCRASQGLTNDLHWYQQKPGKAPKRLIYYASQSISGVPSRFSGSGSGTEFTLTISSLQPEDFATYYCQQSNSWPFTFGQGTKLEIK

Substitutions are numbered along the chain they refer to. Names may count otherwise.

Broadly, the Kd is the constant that tells how readily two partners part at equilibrium. The EC50 is the concentration needed to bring the measured effect to its halfway point. As usually defined, the EC50 (read off the curve) is the concentration giving half of the maximal effect.

T4 sequence (P59901 24-499): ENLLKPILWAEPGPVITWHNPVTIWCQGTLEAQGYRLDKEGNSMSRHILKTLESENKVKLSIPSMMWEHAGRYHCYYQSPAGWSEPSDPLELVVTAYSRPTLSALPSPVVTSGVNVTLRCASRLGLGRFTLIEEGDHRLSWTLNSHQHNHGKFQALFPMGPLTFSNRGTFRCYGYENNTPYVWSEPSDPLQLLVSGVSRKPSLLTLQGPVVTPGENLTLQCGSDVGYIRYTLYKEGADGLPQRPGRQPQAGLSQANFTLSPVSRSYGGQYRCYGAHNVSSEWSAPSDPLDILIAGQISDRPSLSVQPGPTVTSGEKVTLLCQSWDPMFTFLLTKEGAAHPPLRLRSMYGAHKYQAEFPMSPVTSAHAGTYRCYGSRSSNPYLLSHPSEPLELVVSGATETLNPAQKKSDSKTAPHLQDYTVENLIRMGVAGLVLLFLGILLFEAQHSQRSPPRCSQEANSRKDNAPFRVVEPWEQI
T8 sequence (O75022 24-631): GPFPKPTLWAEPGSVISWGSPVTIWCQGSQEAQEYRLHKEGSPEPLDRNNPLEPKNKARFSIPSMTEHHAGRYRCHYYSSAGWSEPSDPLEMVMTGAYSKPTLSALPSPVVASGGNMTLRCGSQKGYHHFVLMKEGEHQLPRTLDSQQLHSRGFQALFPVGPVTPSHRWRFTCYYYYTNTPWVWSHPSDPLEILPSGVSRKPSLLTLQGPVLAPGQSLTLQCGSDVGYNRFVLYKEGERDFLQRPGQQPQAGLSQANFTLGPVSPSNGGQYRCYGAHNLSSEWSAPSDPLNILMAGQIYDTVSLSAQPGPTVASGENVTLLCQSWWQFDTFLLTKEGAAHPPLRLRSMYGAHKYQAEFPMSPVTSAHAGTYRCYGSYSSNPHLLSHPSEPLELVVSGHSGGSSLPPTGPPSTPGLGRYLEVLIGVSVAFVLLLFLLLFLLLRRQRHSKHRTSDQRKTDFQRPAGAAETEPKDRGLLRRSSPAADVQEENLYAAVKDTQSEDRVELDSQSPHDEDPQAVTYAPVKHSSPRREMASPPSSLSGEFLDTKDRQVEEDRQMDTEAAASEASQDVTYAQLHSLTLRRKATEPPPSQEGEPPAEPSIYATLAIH
T5 sequence (A6NI73 42-299): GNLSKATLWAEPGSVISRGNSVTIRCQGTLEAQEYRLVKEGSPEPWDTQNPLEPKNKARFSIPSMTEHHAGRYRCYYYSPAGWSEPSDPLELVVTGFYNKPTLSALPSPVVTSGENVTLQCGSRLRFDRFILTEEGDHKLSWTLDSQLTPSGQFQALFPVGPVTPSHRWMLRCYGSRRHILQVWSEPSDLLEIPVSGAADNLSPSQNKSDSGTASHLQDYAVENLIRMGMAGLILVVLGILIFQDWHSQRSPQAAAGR

One assay deals with T1, Human ILT3 (LILRB4) extracellular domain with C-terminal His Tag (human, UniProt Q8NHJ6 22-259).
T1 construct: the claims count residues 1-238 as the extracellular domain; also called human ILT3-His; ILT3_H
Briefly: SPR (Biacore), human ILT3-His.
As for B1, the Kd was found to be 0.0205 nM.

As for B2, the Kd came out at 6.99 nM.

In the case of B3, the Kd is 0.0118 nM.

As for B4, the Kd is 0.0957 nM.

For B5, binding was characterised by a dissociation constant (Kd) of 0.658 nM.

For a further assay, the target named is T1, Human ILT3 (LILRB4) extracellular …. Briefly: SPR (Biacore), human ILT3-His. This is another data set of the same source. (In general: SPR reads the build-up and loss of mass on a sensor chip optically.)
As for B1, binding was put at a Kd of 0.021 nM.

Molecule B2 had a Kd of 6.99 nM.

For B3, binding was put at a Kd of 0.012 nM.

On to B4, for which the Kd is 0.096 nM.

The molecule B5 showed a Kd of 0.658 nM.

B6 yielded a Kd of 0.46 nM.

A further assay concerns the target T2, human ILT3 expressed on cells (human, UniProt Q8NHJ6 22-448).
T2 construct: whole, on cells; also called huILT3; LILRB4
Briefly: cELISA, CHO human ILT3 cells. Here is the method:
(§1) Mouse anti-human ILT3 antibodies were tested for binding to human ILT3, and cross-reactivity to Rhesus monkey ILT3, human ILT5, human ILT7, human ILT8, and human ILT11 expressing CHO-K1 cells using a cell-based ELISA format. CHO-K1 cells were plated in 96-well tissue-culture plates in 50 μL of DMEM/F12, 10% BCS and gentamycin (CHO-K1 media). Cells were plated at either 2×10⁴ cells/well two days prior to the assay or 4×10⁴ cells/well one day prior to the assay. Media was removed from the wells prior to adding the test samples. Purified antibody was serially-diluted in CHO-K1 media and added to the CHO-K1 plates. The samples were incubated at room temperature for 30-60 minutes and plates were washed three times with PBS/05% Tween-20 using the cell wash program on the Biotek EL405x Select CW plate washer. Binding was detected using an HRP-conjugated goat anti-mouse IgG (Southern Biotech cat #1031-05) secondary antibody added at a 1:2000 dilution in CHO-K1 media and incubated at room temperature for 30-60 minutes. Assay plates were washed as above and developed with TMB and stopped with TMB stop solution (KPL cat #50-85-06). The absorbance at 450 nm—620 nm was determined. Mouse IgG1 (MIgG1) served as a control.
Molecule B1 showed an EC50 of 0.0214 µg/mL.

B2 returned an EC50 of 0.002 µg/mL.

The molecule B3 displayed an EC50 of 0.0077 µg/mL.

In the case of B4, the EC50 came to 0.0649 µg/mL.

Molecule B5 showed an EC50 of 0.0155 µg/mL.

A further assay deals with T3, Rhesus monkey ILT3 expressed on CHO-K1 cells (rhesus monkey (Macaca mulatta)).
T3 construct: whole, on cells; also called rhILT3; CHO-rhesus ILT3
The experiment in a line: cELISA, CHO rhesus ILT3 cells. On the procedure:
as §1
For B1, the EC50 was 0.0231 µg/mL.

B2 displayed an EC50 of 0.018 µg/mL.

B3 displayed an EC50 of 0.0095 µg/mL.

In turn, B4 gave an EC50 of 0.0679 µg/mL.

The molecule B5 gave an EC50 of 0.0232 µg/mL.

The next assay has as its target T3, Rhesus monkey ILT3 expressed on CHO-K1 …. The experiment in a line: cELISA, CHO rhesus ILT3 cells. This is another data set of the same source.
Molecule B1 registered an EC50 of 21.3 µg/mL.

With B2, the EC50 was 18 µg/mL.

B3: the EC50 was determined as 9.48 µg/mL.

Turning to B5, the EC50 is 23.2 µg/mL.

Regarding B6, the midpoint of the response, the EC50, lay at 0.091 µg/mL.

Another assay concerns the target T4, human ILT7 expressed on CHO-K1 cells (human, UniProt P59901 24-499).
T4 construct: whole, on cells
Briefly: cell-based ELISA on CHO-K1 cells expressing human ILT7, HRP anti-mouse IgG, OD 450-650 nm. Here is the method: as §1, with “The absorbance at 450 nm—620 nm was determined.” left out
With B5, the binding result is listed as “no binding (tested: 10000 ng/ml)”.

A further assay addresses T5, human ILT11 expressed on CHO-K1 cells (human, UniProt A6NI73 42-299).
T5 construct: whole, on cells
Briefly: cell-based ELISA on CHO-K1 cells expressing human ILT11, HRP anti-mouse IgG, OD 450-650 nm. On the procedure: as §1, with “The absorbance at 450 nm—620 nm was determined.” left out
On the technique in general: ELISA stands for enzyme-linked immunosorbent assay.
For the molecule B5, the binding result is given as “no binding (tested: 10000 ng/ml)”.

The target of another assay is T6, rhesus ILT3-His tagged recombinant protein (rhesus monkey (Macaca mulatta)).
T6 construct: also called ILT3_MM; not shown: His tag
T6 chain: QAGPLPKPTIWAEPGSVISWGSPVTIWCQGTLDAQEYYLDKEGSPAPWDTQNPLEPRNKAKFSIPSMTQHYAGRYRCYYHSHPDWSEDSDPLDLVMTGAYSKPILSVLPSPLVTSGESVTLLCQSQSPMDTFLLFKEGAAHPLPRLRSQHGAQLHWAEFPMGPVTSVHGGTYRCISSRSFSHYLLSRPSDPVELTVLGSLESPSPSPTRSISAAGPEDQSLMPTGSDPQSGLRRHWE
The experiment in a line: SPR (Biacore), rhesus ILT3-His. The procedure, abridged: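 Antibodies captured on anti-human Fc surface, with human or rhesus ILT3-His as analyte in HBS-EP+ running buffer; reference flow cell subtracted, regeneration with 3M MgCl₂. ka and kd obtained from 1:1 Langmuir fits, KD = kd/ka.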
For the molecule B1, the Kd amounted to 0.126 nM.

For B2, the dissociation constant (Kd) was 18.2 nM.

B3: the Kd came to 0.145 nM.

B4: the Kd was 0.259 nM.

For B5, the Kd amounted to 24.4 nM.

As to B6, the Kd was 9.5 nM.

A further assay deals with T7, human ILT8 expressed on CHO-K1 cells (human, UniProt Q6PI73 24-481).
T7 construct: whole, on cells; also called CHO-ILT8
T7 sequence (Q6PI73 24-481): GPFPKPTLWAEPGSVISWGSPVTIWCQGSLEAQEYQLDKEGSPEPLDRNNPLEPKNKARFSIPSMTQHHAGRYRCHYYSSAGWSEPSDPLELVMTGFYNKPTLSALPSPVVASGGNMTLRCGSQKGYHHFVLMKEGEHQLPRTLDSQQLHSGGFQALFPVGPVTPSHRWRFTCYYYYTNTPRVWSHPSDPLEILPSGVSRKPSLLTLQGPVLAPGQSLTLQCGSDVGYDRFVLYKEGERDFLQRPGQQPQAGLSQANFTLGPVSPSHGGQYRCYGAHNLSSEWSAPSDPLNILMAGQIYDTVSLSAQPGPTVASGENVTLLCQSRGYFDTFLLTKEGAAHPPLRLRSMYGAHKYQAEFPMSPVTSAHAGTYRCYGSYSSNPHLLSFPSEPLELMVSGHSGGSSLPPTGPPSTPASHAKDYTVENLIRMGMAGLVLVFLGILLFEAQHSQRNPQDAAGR
The experiment in a line: cell-based ELISA on CHO-K1 cells expressing human ILT8, HRP anti-mouse IgG, OD 450-650 nm. Here is the method:
as §1, with “The absorbance at 450 nm—620 nm was determined.” left out
Turning to B7, the “EC50 (read off the curve)” value is approximately 0.02 µg/mL.

With B5, the binding result is on record as “no binding (tested: 10000 ng/ml)”.

The next assay concerns the target T6, rhesus ILT3-His tagged recombinant …. The experiment in a line: SPR (Biacore), rhesus ILT3-His. This is another data set of the same source.
For the molecule B1, the Kd turned out to be 0.126 nM.

Consider B2, for which the Kd was 18 nM.

In the case of B3, the Kd worked out at 0.15 nM.

For B4, the Kd was 0.259 nM.

Consider B5, for which the Kd was 24.4 nM.

For the next assay, the target named is T2, human ILT3 expressed on cells. Briefly: cell-based or functional assay.
Regarding B6, the “TNFα secretion by human monocyte-derived dendritic cells polarized with IL-10 and LPS; concentration giving half of the maximal increase (EC50)” value is approximately 0.0019 µg/mL.

The next assay addresses T8, human ILT5 expressed on CHO-K1 cells (human, UniProt O75022 24-631).
T8 construct: whole, on cells; also called CHO-ILT5
The experiment in a line: cell-based ELISA on CHO-K1 cells expressing human ILT5, HRP anti-mouse IgG, OD 450-650 nm. On the procedure: as §1, with “The absorbance at 450 nm—620 nm was determined.” left out
As for B5, the binding result is listed as “no binding (tested: 10000 ng/ml)”.

In another assay the target is T2, human ILT3 expressed on cells. Briefly: cELISA, CHO human ILT3 cells. This is another data set of the same source.
Regarding B1, the EC50 was found to be 21.4 µg/mL.

The molecule B2 displayed an EC50 of 1.99 µg/mL.

B3 returned an EC50 of 7.72 µg/mL.

On to B5, for which the EC50 was found to be 0.0155 µg/mL.

For the molecule B6, the midpoint of the response, the EC50, lay at 0.064 µg/mL.

A further assay concerns the target T3, Rhesus monkey ILT3 expressed on CHO-K1 …. The experiment in a line: cell-based ELISA on CHO-K1 cells expressing Rhesus monkey ILT3, HRP anti-mouse IgG, OD 450-650 nm.
With B7, the “EC50 (read off the curve)” value was approximately 0.05 µg/mL.

A further assay deals with T2, human ILT3 expressed on cells. The experiment in a line: cell-based ELISA on CHO-K1 cells expressing human ILT3, HRP anti-mouse IgG, OD 450-650 nm.
On to B7, for which the “EC50 (read off the curve)” value was approximately 0.02 µg/mL.
